The results in this text go back to patent publication US20030199671A1 (published 2003).

Starred links: 1 amine or outer side, 2 acyl side, 3 side chain; linkers in the order of their positions; H or OH if unused. Primed or numbered codes have the meaning given here. code X(3) = -NH-(CH2CH2O)2-CH2CH2- (from -X-NH2 = -NH-(CH2CH2O)2-CH2CH2-NH2), C(COCCOCC[*:2])N[*:1]; code Z = not defined here; Su = not defined here

The target in assay [1] is T1, human IgG (unfractionated, polyclonal).
T1 construct: also called hIgG; polyclonal human IgG
In words: filterplate; 25 mg human IgG applied per ml resin. The protocol:
After incubation of the samples, with shaking, at room temperature for one hour, the supernatant liquid from each well, containing unbound IgG, was collected by centrifugation into the cognate well of a collection plate. The assay plate was washed three times with PBST (200 μl/wash) and bound IgG was eluted from the media samples by incubation for 30-60 minutes at room temperature in 100 μl Elution Buffer (100 mM CAPS, pH 11.5). Eluates were collected by centrifugation for analysis. Protein concentrations were determined from A₂₈₀ measurements and plotted as a function of mg human IgG bound per ml resin vs. mg human IgG applied per ml resin.
These were subsequently tested in batch filterplate format for relative static capacity, human IgG subtype and species specificity as previously described. In addition, total dynamic capacities were determined for comparison. […] The static capacity (mg IgG bound per ml resin) was measured at the 2.5 mg/ml target concentration (25 mg human IgG applied per ml resin).

The target of assay [2] is T2, human IgG3 (human, UniProt P01860-1 1-377).
T2 construct: Calbiochem; plasma IgG3 in anisotropy studies, myeloma-derived (cat. 400124) in batch/column studies; also called hIgG3
Kind of assay: anisotropy; pH 4.0 + salt.

Assay [3] concerns the target T2, human IgG3. In words: anisotropy; pH 4.0 - salt.
In assay [4] the target is T3, human IgG4 (human, UniProt P01861-1 1-327 = IgG part).
T3 construct: Calbiochem; plasma IgG4 in anisotropy studies, myeloma-derived (cat. 400126) in batch/column studies; also called hIgG4
In words: batch binding, immobilised ligand. The protocol: (§1) IgG targets were diluted into 10 mM phosphate buffer containing 150 mM NaCl and 0.01% Tween 20, pH 7.2 (PBST) or 50 mM Tris buffer containing, 150 mM NaCl and 0.01% Tween-20, pH 7.5 (TBST). Batch (static) binding and elution studies were conducted in a 96-well assay filterplate (Millipore MultiScreen-HV, with 0.45 μm Durapore membrane, product no. MAHVN4510). The target was allowed to incubate with the resin for 1-1.5 hours with shaking at room temperature. Unbound target was collected by centrifugation of samples from the assay plate directly into a low-UV absorbing 96-well collection plate (Costar, product no. 3635 or Greiner, product no. 655801). The unbound target was then quantitated by reading the absorbance at 280 nm (normalized to 1 cm pathlength, 1.4 mg/ml A280 extinction coefficient) of the collection plate on a microplate spectrophotometer (Molecular Devices Corp., SPECTRAmax PLUS) against a buffer blank.
(§2) The percentage bound target was determined by subtracting the mass determined as unbound from the corresponding condition's control values (control non-filtered added directly to the collection plate and/or the negative control). The assay plate was washed (3×) with 200 μl of binding buffer by vacuum filtration followed by addition of 100 μl of various elution conditions (e.g.: 0.1 M sodium bicarbonate buffer, pH 8.5 and/or 0.1 M sodium citrate buffer, pH 4.0). After a 30-60 minute incubation with shaking at room temperature, the eluted target was collected by centrifugation of the assay plate into another collection plate and quantitated in a similar manner. Percent elution of total load was then determined to characterize elution recovery efficiency under various conditions.

For assay [5], the target named is T2, human IgG3. In words: batch binding, immobilised ligand. The protocol:
as §1, §2

The target in assay [6] is T4, human IgG1 (human, UniProt P01857-1 1-330 = IgG part).
T4 construct: Calbiochem; human plasma IgG1 in anisotropy studies, myeloma-derived (cat. 400120) in batch/column studies; also called hIgG1
In words: batch binding, immobilised ligand. The method, then: as §1, §2

The target in assay [7] is T5, human IgG2 (human, UniProt P01859-1 1-326 = IgG part).
T5 construct: Calbiochem; plasma IgG2 in anisotropy studies, myeloma-derived (cat. 400122) in batch/column studies; also called hIgG2
Kind of assay: batch binding, immobilised ligand. The method, then:
as §1, §2

The target of assay [8] is T2, human IgG3. Kind of assay: anisotropy; pH 7.5 + salt.
Assay [9] addresses T3, human IgG4. In words: anisotropy; pH 7.5 - salt.
For assay [10], the target named is T4, human IgG1. In words: anisotropy; pH 7.5 - salt.
In assay [11] the target is T2, human IgG3. In words: anisotropy; pH 9.5 + salt.
Assay [12] deals with T3, human IgG4. In words: anisotropy; pH 4.0 - salt.
Assay [13] addresses T4, human IgG1. In words: anisotropy; pH 4.0 - salt.
Assay [14] has as its target T5, human IgG2. In words: anisotropy; pH 4.0 - salt.
Assay [15] has as its target T3, human IgG4. Kind of assay: mini-column chromatography, immobilised ligand. The method, then:
(§3) Thus, 250 μg of target (hIgG1, hIgG2, hIgG3, hIgG4, goat IgG and bovine IgG) at 0.250 mg/ml in PBST, pH 7.2 or TBST, pH 7.3 was loaded onto a 350 μl column (3×50 mm) run at 0.200 ml/min. flowrate (170 cm/hr). Flowthrough, elution and cleaning fractions were collected and assayed for total protein recovery by size-exclusion HPLC.

For assay [16], the target named is T4, human IgG1. Kind of assay: mini-column chromatography, immobilised ligand. The protocol: as §3
For assay [17], the target named is T5, human IgG2. Kind of assay: mini-column chromatography, immobilised ligand. The protocol:
as §3

T5 sequence (P01859 other isoform, or with tags, fused parts or gaps): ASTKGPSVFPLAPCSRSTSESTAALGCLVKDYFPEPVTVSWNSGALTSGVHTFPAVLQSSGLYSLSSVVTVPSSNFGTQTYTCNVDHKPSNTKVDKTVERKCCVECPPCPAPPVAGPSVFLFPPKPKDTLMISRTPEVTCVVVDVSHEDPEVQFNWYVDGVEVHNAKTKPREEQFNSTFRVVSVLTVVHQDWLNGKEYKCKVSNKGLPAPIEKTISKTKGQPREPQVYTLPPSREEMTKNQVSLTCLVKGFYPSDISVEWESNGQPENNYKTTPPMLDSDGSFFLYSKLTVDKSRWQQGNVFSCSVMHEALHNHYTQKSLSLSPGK
T2 sequence (P01860 other isoform, or with tags, fused parts or gaps): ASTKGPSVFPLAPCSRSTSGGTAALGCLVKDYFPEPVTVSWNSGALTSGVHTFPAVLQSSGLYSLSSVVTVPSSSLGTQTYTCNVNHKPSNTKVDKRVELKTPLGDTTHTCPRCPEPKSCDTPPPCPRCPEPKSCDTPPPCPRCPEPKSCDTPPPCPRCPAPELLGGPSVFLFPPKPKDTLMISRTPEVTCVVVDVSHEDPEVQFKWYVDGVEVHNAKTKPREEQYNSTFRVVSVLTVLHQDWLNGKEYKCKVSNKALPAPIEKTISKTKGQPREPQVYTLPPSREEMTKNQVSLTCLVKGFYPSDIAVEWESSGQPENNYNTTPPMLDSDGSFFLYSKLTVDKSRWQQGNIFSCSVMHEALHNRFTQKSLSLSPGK
T4 sequence (P01857 other isoform, or with tags, fused parts or gaps): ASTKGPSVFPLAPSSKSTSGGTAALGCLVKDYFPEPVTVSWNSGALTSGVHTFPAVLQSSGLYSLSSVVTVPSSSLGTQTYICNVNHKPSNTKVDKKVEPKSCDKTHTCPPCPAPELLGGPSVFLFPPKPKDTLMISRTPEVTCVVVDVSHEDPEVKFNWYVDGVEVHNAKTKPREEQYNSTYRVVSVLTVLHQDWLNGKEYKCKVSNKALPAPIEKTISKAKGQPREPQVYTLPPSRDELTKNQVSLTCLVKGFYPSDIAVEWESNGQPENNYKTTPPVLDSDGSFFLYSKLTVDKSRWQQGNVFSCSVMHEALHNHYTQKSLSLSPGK
T3 sequence (P01861 other isoform, or with tags, fused parts or gaps): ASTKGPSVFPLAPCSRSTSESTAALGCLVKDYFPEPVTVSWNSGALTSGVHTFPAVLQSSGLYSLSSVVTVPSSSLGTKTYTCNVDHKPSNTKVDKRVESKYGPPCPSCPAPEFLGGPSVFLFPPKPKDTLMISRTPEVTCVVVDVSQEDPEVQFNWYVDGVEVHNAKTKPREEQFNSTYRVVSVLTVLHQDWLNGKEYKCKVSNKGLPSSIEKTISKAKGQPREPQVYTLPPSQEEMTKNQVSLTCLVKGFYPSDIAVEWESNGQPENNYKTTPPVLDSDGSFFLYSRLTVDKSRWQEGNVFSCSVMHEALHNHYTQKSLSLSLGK

B1: DX909 (peptide)
peptide: Ac-GDDHMCVYTTWGELIWCDNH-{code X(3)-Su-code X(3)-NH2}
modifications: not fully specified (bridges); printed as Ac-GDDHMCVYTTWGELIWCDNH-X-Su-X-NH2; cysteine pairing not given here; reading uncertain
notes: DX249 derivative; immobilised
As for B1, the “Static Cap.” value in assay [1] is 11 mg/mL.

B2: DX392 (peptide)
peptide: Ac-AGSYWCKIWDVCPQSPGPEGGGK-NH2
modifications: not fully specified (bridges); printed as Ac-AGSYWCKIWDVCPQSPGPEGGGK-NH2; cysteine pairing not given here
notes: immobilised in batch assays
For the molecule B2, the Kd came out at 600 nM with human IgG3 [2] and 320 nM in the assay with human IgG3 [3].

B3: DX413 (peptide)
peptide: Ac-AGYWYCWFPDRPECPLYPGPEGGGK-NH2
modifications: not fully specified (bridges); printed as Ac-AGYWYCWFPDRPECPLYPGPEGGGK-NH2; cysteine pairing not given here
With B3, the Kd with human IgG3 [2] was 1100 nM; with human IgG3 [3], 840 nM.

B4: DX1070 (peptide)
peptide: Ac-GDWGECTVTSYGELIWCGGLEPGPEGGGK-NH2
modifications: not fully specified (bridges); printed as Ac-GDWGECTVTSYGELIWCGGLEPGPEGGGK-NH2; cysteine pairing not given here
notes: Immobilised on Sepharose
Regarding B4, the “Bound (% of Total Load)” value was 59% with human IgG4 [4], 0% with human IgG3 [5], 87% with human IgG1 [6] and 82% with human IgG2 [7].

B5: DX1071 (peptide)
peptide: Ac-GDNPMCWRASWWEDAYCINHEPGPEGGGK-NH2
modifications: not fully specified (bridges); printed as Ac-GDNPMCWRASWWEDAYCINHEPGPEGGGK-NH2; cysteine pairing not given here
notes: Derivative of DX596 (two internal lysines replaced by arginine and alanine); immobilised
With B5, the “Bound (% of Total Load)” value with human IgG4 [4] stood at 1%; with human IgG3 [5] it was 0%; with human IgG1 [6] it was 7%; with human IgG2 [7], 2%.

B6: DX398 (peptide)
peptide: Ac-AGAATCSTSYWYYQWFCTDSPGPEGGGK-NH2
modifications: not fully specified (bridges); printed as Ac-AGAATCSTSYWYYQWFCTDSPGPEGGGK-NH2; cysteine pairing not given here
notes: immobilised in batch assays
B6: the dissociation constant (Kd) with human IgG3 [8] turned out to be 300 nM; with human IgG4 [9] it was 3.5 µM; with human IgG1 [10], 4.6 µM; with human IgG3 [2], 40 nM; with human IgG3 [11] it was 300 nM; with human IgG4 [12] it was 1600 nM. In addition, the Kd in the assay with human IgG3 [3] turned out to be 20 nM; with human IgG1 [13], 2400 nM; with human IgG2 [14], 1800 nM.

B7: DX597 (peptide)
peptide: Ac-GDSWNCAFHHNEMVWCDDGGTPGPEGGGK-NH2
modifications: not fully specified (bridges); printed as Ac-GDSWNCAFHHNEMVWCDDGGTPGPEGGGK-NH2; cysteine pairing not given here
notes: Immobilised on Sepharose
For the molecule B7, the “Bound (% of Total Load)” value is 71% in the assay with human IgG4 [4], 0% with human IgG3 [5], 93% with human IgG1 [6] and 90% in the assay with human IgG2 [7].

B8: DX389 (peptide)
peptide: Ac-AGPHNCDDHYWYCKWFPGPEGGGK-NH2
modifications: not fully specified (bridges); printed as Ac-AGPHNCDDHYWYCKWFPGPEGGGK-NH2; cysteine pairing not given here
notes: immobilised in batch assays
For B8, the dissociation constant (Kd) in the assay with human IgG3 [2] amounted to 1800 nM; with human IgG3 [3] it was 2500 nM.

B9: DX907 (peptide)
peptide: Ac-GDDHMCVYTTWGELIWCDNH-{code X(3)-NH2}
modifications: not fully specified (bridges); printed as Ac-GDDHMCVYTTWGELIWCDNH-X-NH2; cysteine pairing not given here
notes: DX249 derivative; immobilised
As for B9, in [1], the “Static Cap.” value stood at 10 mg/mL.

B10: DX253 (peptide)
peptide: Ac-GDRRACSRDWSGALVWCAGHEPGPEGGGK-NH2
modifications: not fully specified (bridges); printed as Ac-GDRRACSRDWSGALVWCAGHEPGPEGGGK-NH2; cysteine pairing not given here
notes: immobilised on Sepharose in batch/column assays
With B10, the binding efficiency with human IgG4 [15], in the assay with human IgG1 [16] and in the assay with human IgG2 [17] was greater than 90% throughout. Moreover, the “Bound (% of Total Load)” value came out at 60% in the assay with human IgG4 [4], 0% with human IgG3 [5], 86% with human IgG1 [6] and 81% with human IgG2 [7]. Besides, the “bdg % (of Total Load)” value with human IgG4 [4] turned out to be 40%; with human IgG3 [5] it was 15%; in the assay with human IgG1 [6], 56%; with human IgG2 [7], 63%.

B11: DX911 (peptide)
peptide: Ac-GDDHMCVYTTWGELIWCDNH-{code X(3)-code Z-code X(3)-NH2}
modifications: not fully specified (bridges); printed as Ac-GDDHMCVYTTWGELIWCDNH-X-Z-X-NH2; cysteine pairing not given here; reading uncertain
notes: DX249 derivative; immobilised
Turning to B11, the “Static Cap.” value in [1] is 9 mg/mL.

B12: DX1072 (peptide)
peptide: Ac-GDNPMCWRAHWWEDAYCINHEPGPEGGGK-NH2
modifications: not fully specified (bridges); printed as Ac-GDNPMCWRAHWWEDAYCINHEPGPEGGGK-NH2; cysteine pairing not given here
notes: Derivative of DX596 (Lys-Lys to Arg-Ala and adjacent Ser to His); immobilised
In the case of B12, the “Bound (% of Total Load)” value is 15% in the assay with human IgG4 [4], 0% in the assay with human IgG3 [5], 31% with human IgG1 [6] and 21% with human IgG2 [7].
